Source: patent publication US20150086555A1

How the values were obtained:
Conditions in all cases: remark: other sources report otherwise
[1] = biological target: recombinant soluble homotrimeric HA of A/Anhui/1/05 (H5N1) (Influenza A virus A/Anhui/1/2005(H5N1)); test: trimeric HA microarray, transfection supernatant set 4
[2] = biological target: recombinant soluble homotrimeric HA of A/California/4/09 (H1N1) (Influenza A virus A/California/04/2009(H1N1)); test: as above
[3] = biological target: recombinant soluble homotrimeric HA of A/Egypt/3300-NAMRU3/08 (H5N1) (Influenza A virus A/Egypt/3300-NAMRU3/2008(H5N1)); test: as above
[4] = biological target: T1, recombinant soluble homotrimeric HA of A/Hong Kong/2108/03 (H9N2) (Influenza A virus A/HK/2108/2003(H9N2)); test: as above
[5] = biological target: recombinant soluble homotrimeric HA of A/Indonesia/5/05 (H5N1) (Influenza A virus A/Indonesia/5/2005(H5N1)); test: as above
[6] = biological target: recombinant soluble homotrimeric HA of A/Japan/305/57 (H2N2) (Influenza A virus A/Japan/305/1957(H2N2)); test: as above
[7] = biological target: recombinant soluble homotrimeric HA of A/Netherlands/219/03 (H7N7) (Influenza A virus A/Netherlands/219/03(H7N7)); test: as above
[8] = biological target: recombinant soluble homotrimeric HA of A/Solomon Islands/3/06 (H1N1) (Influenza A virus A/Solomon Islands/3/2006(H1N1)); test: as above
[9] = biological target: recombinant soluble homotrimeric HA of A/South Carolina/1/18 (H1N1) (Influenza A virus A/South Carolina/1/18 (H1N1)); test: as above
[10] = biological target: recombinant soluble homotrimeric HA of A/Vietnam/1203/04 (H5N1) (Influenza A virus A/VietNam/1203/2004(H5N1)); test: as above
[11] = biological target: recombinant soluble homotrimeric HA of A/chicken/Vietnam/NCVD-016/08 (H5N1) (Influenza A virus A/chicken/Vietnam/NCVD-016/2008(H5N1)); test: as above
[12] = biological target: recombinant soluble homotrimeric HA of A/duck/Yangzhou/02/05 (H8N4) (Influenza A virus A/duck/Yangzhou/02/2005(H8N4)); test: as above
[13] = biological target: T2, recombinant soluble homotrimeric HA of A/northern shoveler/California/HKWF115/07 (H6) (Influenza A virus A/northern shoveler/California/HKWF115/2007(H6N1)); test: as above
[14] = biological target: recombinant soluble homotrimeric HA of A/swine/Ontario/01911-2/99 (H4N6) (Influenza A virus A/Swine/Ontario/01911-2/99 (H4N6)); test: as above
[15] = biological target: T3, recombinant soluble homotrimeric HA of A/Hong Kong/1073/99 (H9N2) (Influenza A virus A/Hong Kong/1073/99 (H9N2)); test: trimeric HA microarray, transfection supernatant set 2
[16] = biological target: T1, recombinant soluble homotrimeric HA of …; test: as above
[17] = biological target: T2, recombinant soluble homotrimeric HA of …; test: as above
[18] = biological target: T3, recombinant soluble homotrimeric HA of …; test: trimeric HA microarray, transfection supernatant set 3
[19] = biological target: T2, recombinant soluble homotrimeric HA of …; test: as above

B1: TCN-534 (5249_B02) (antibody, V domains shown)
VH: QVQLVQSGAEVKKPGSSVKVSCRESGGTFNGYTITWVRQAPGQGLEWMGGIIPMMGTVNYAQKLQGRVTITTDYFTKTAYMDLNNLRSEDTAMYYCVKIRYTGQQLLWGQGTLVTVSS
VL: DIQMTQSPSTLSASIGDRVTITCRASQSIASWLAWYQQKPGKAPKLLIYEAVNLESGVPSRFSGSGSGTDFTLTISSLQPDDFATYFCQHYGTISQTFGGGTKVEIK
B1 was tested, and the Trimeric HA Binding: RLU [1] was 20 RLU, the Trimeric HA Binding: RLU [2] was 27000 RLU and the Trimeric HA Binding: RLU [3] was 8310 RLU. For the same binder, the Trimeric HA Binding: RLU [4] was 27 RLU, the Trimeric HA Binding: RLU [5] was 948 RLU and the Trimeric HA Binding: RLU [6] was 14700 RLU. For the same binder, the Trimeric HA Binding: RLU [7] was 361 RLU, the Trimeric HA Binding: RLU [8] was 60 RLU and the Trimeric HA Binding: RLU [9] was 11800 RLU. It also gave a Trimeric HA Binding: RLU [10] of 23700 RLU, a Trimeric HA Binding: RLU [11] of 11400 RLU and a Trimeric HA Binding: RLU [12] of 79 RLU. For the same binder, the Trimeric HA Binding: RLU [13] was 21300 RLU and the Trimeric HA Binding: RLU [14] was 264 RLU.

B2: TCN-523 (5248_A17) (antibody, V domains shown)
VH: QVQLVQSGAEVKKPGSSVKVSCKASGGSFSNYAFSWVRQAPGQGLEWMGGTIPLLGTTNYAQKFQGRVTISADQFTSTAYMELGSLRSEDTAVYYCTRRKMTTAFDSWGQGTLVTVSS
VL: QPVLTQPPSASASLGASVTLTCTLSSAYSNYKVDWYQQRPGKGPRFVMRVGTGGIVGSKGDGIPDRFSVLGSGLNRYLTIKNIQEEDESDYHCGADHGSGSNFVSPYVFGGGTKLTVL
B2 gave a Trimeric HA Binding: RLU [15] of 31300 RLU, a Trimeric HA Binding: RLU [16] of 18 RLU and a Trimeric HA Binding: RLU [17] of 21200 RLU. It also gave a Trimeric HA Binding: RLU [18] of 24200 RLU, a Trimeric HA Binding: RLU [19] of 29400 RLU and a Trimeric HA Binding: RLU [1] of 48 RLU. It also gave a Trimeric HA Binding: RLU [2] of 28800 RLU, a Trimeric HA Binding: RLU [3] of 33400 RLU and a Trimeric HA Binding: RLU [4] of 38 RLU. For the same binder, the Trimeric HA Binding: RLU [5] was 24500 RLU, the Trimeric HA Binding: RLU [6] was 3840 RLU and the Trimeric HA Binding: RLU [7] was 443 RLU. It also gave a Trimeric HA Binding: RLU [8] of 371 RLU, a Trimeric HA Binding: RLU [9] of 23000 RLU and a Trimeric HA Binding: RLU [10] of 30900 RLU. The Trimeric HA Binding: RLU [11] was 24000 RLU and the Trimeric HA Binding: RLU [13] was 25100 RLU.
